# Reference: patent US20170334973A1 (published 2017)
# T1: EBOV GPcl (Ebola virus (EBOV), UniProt Q05320 33-200; Q05320 502-632)
# T1 chain 1: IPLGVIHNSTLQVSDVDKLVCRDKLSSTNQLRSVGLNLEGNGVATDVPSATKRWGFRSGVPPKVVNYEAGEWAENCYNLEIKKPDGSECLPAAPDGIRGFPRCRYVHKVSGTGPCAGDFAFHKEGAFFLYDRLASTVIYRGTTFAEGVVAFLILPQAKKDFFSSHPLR
# T1 chain 2: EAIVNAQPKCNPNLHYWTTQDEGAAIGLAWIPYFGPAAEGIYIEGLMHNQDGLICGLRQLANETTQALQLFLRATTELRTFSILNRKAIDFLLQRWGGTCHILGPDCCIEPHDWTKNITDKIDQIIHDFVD
# T2: EBOV soluble GP (sGP) (Ebola virus (EBOV), UniProt P60170 33-324)
# T2 chain: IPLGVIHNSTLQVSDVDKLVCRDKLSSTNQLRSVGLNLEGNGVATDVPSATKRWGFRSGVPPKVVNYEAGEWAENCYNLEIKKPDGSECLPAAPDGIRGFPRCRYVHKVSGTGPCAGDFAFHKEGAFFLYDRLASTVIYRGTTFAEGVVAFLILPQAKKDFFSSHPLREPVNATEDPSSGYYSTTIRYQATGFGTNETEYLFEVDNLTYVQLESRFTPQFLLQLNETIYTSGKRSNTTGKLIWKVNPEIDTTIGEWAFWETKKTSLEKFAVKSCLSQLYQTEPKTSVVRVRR
# B1: FVM04 (antibody, V domains shown)
# VH: EVQLVQSGGGLVQPGGSMRLSCEASGLSLSDYFMHWVRQAQGKGLEWIGLIQTKAFTYKTEYPAAVKGRFTISRDDSKNTLYLQMSSLKPEDTALYYCIAVTPDFYYWGQGVLVTVSS
# VL: DVVMTQSPSFLSASVGDRVTITCRASQDITINLNWFQHKPGKAPKRLIYVASRLERGVPSRFSGSGSGTEFTLTISSLQPEDFATYYCQQYNNYPLTFGPGTKLDIKR
# B2: FVM02P (antibody, V domains shown)
# VH: EVQLVESGGGLVQPGGSLRLSCAASGFTGFTFSDYAFYWVRQAPGKGLEWVGFIRGKAYGGTADYAASVKGRFTISRDNSKNTAYLQMSSLKTEDSAVYYCTSQGVTVATPYHWGQGVLVTVSS
# VL: DIVLTQSPLSLPVTPGEPASISCRSSQSLLHSGGKTYLYWYLQKPGQSPQLLIHEVSNRASGVPDRFSGSGSGTDFTLKISRVEAEDVGVYYCMQGIQLPLTFGGGTKVEIKR
# B3: FVM13 (antibody, V domains shown)
# VH: EVQLVQSGAEVKRPGESLKISCKTSGYTFTSSWISWVRQMPGKGLEWLGSIYPGDSDTRYNPSFQGHVTISADTSIITTHLQWSSLKASDTATYYCVKGSETWGQGVLVTVSS
# VL: KPMLTQPTSLSASPGASASLTCTFSGGINVAGYNILWYQQKAGSPPRYLLRYKSDSTKDQGSGVPSRFSGSKDASANTGILRISGLQSEDEADYYCAIGHSSGWIFGGGTRLTVL
# B4: FVM20 (antibody, V domains shown)
# VH: EVQLVESGAEVKRPGESLTISCKTSGYSFTGSWISWVRQMPGKGLEWLGSIYPGDSETKYNPSFQGHVTISADKSVTTTYLKWSSLKASDTATYYCVKGSETWGQGVLVTVSS
# VL: NFMLTQSASLSASPGASASLTCTFSGGINVAGYHIFWYQQNPGSPPRYLLRYKSDSEKDQGSGVPSRFSGSKDASANTGILRISGLQSEDEADYYCAIGHSSGWIFGGGTRLTVL
# B5: FVM09 (antibody, V domains shown)
# VH: EVQLVQSGAEVKRPGESLTISCKTSGYSFTDSWVAWVRQMPGKGLEWLGSIYPGDSETKYNPSFQGHVTISADKSVTTTYLKWSSLKASDTATYYCVKGSETWGQGVLVTVSS
# VL: QLVLTQPASLSASPGASASLTCTFSGGINVAGYNILWYQQKAGSPPRYLLRYKSDSTKDQGSGVPSRFSGSKDASANTGILRISGLQSEDEADYYCAIGHSSGWIFGGGTRLTVL
# B6: FVM01P (antibody, V domains shown)
# VH: QVQLQESGPGLVKPSETLSLTCTVSGASISNYRWNWIRQPPGKGLEWIGEINGYSGSTNYNPSLKSRVTISKDASKNQFSLKLTSVTAADTAVYYCPIIGGFTLEWFDVWGPGVLVTVSS
# VL: DVVLTQSPSSLSASVGDRVTITCRASQGIRNYLNWYQQKPRKAPKLLIYAASSLQSGVPSRFSGSGSGTEFTLTISSLQAEDFATYYCLQGYRTPFTFGPGTKLDIKR
# How the values were obtained:
# Assay in all cases: ELISA
# [1] = molecular target: EBOV GP[change] (Ebola virus (EBOV), UniProt Q05320)
# [2] = molecular target: T1, EBOV GPcl
# [3] = molecular target: T2, EBOV soluble GP (sGP)
Binder,EC50 [1],EC50 [2],EC50 [3]
B1,12 ng/mL,8 ng/mL,7 ng/mL
B2,10 ng/mL,5 ng/mL,–
B3,3 ng/mL,> 10000 ng/mL,5 ng/mL
B4,7 ng/mL,> 10000 ng/mL,23 ng/mL
B5,5 ng/mL,–,17 ng/mL
B6,9 ng/mL,5 ng/mL,5 ng/mL
